Results on one molecule are retold here after patent US20030144205A1.

In the assay the target is T1, mouse RFPL4, full-length (amino acid residues 1-287) (mouse) (UniProt Q8VH31).
T1 sequence (looked up): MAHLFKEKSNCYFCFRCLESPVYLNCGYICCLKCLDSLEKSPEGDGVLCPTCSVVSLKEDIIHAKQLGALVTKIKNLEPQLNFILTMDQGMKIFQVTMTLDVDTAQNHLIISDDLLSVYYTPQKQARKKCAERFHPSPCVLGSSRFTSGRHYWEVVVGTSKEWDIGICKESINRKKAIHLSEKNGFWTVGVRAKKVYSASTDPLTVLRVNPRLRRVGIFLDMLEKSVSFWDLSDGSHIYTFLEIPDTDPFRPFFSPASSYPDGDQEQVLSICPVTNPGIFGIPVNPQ
The experiment in a line: yeast two-hybrid mating screen of the ovary cDNA library with pGBKT7-RFPL4 as bait.

B1: Phosphoserine/threonine/tyrosine interaction protein (STYX) (protein, mouse, UniProt Q60969 1-223, looked up)
chain: MEDVKLEFPSLPQCKDDAEEWTYPMRREMQEVLPGLFLGPYSSAMKSKLPILQKHGITHIICIRQNIEANFIKPNFQQLFRYLVLDIADNPVENIIRFFPMTKEFIDGSLQNGGKVLVHGNAGISRSAAFVIAYIMETFGMKYRDAFAYVQERRFCINPNAGFVHQLQEYEAIYLAKLTIQMMSPLQIERSLAVHSGTTGSVKRTHEEDDDFGNMQVATAQNG
The molecule B1 yielded a # of clones of 1 clones.
